This note sets out measurements from US20140011732A1 (Novo Nordisk, published 2014).

Starred links: 1 amine or outer side, 2 acyl side, 3 side chain; linkers in the order of their positions; H or OH if unused. Non-standard residues stand in square brackets, D forms with d. Groups on a side chain read outwards from the residue. No end group written: not given here. *: point of attachment. C20 diacid = O=C(O)CCCCCCCCCCCCCCCCCCC(=O)*; C18 diacid = O=C(O)CCCCCCCCCCCCCCCCC(=O)*; d(βAsp) = O=C(O)[C@@H](CC(=O)[*:2])N[*:1]; γGlu = O=C(O)[C@H](CCC(=O)[*:2])N[*:1]; 2Nal = N[C@@H](Cc1ccc2ccccc2c1)C(=O)O; Desaminohistidyl = O=C(CCc1c[nH]cn1)*; Trx = NC[C@H]1CC[C@H](C(=O)O)CC1; AEEA = NCCOCCOCC(=O)O; Aib = CC(C)(N)C(=O)O; Inp = O=C(O)C1CCNCC1; Bn = c1ccc(C*)cc1

The labels stand for the following.
B1: [ImPr^7,Arg^26,34,Glu^22]GLP-1-(7-37)Lys[2-(2-[2-((S)-4-((S)-4-(12-[4-(16-1H-tetrazol-5-ylhexadecanoylsulfamoyl)butyrylamino]dodecanoylamino)-4-carboxybutyrylam … (peptide)
peptide: HAEGTFTSDVSSYLEEQAAREFIAWLVRGRGK
modifications: ImPr7 (imidazopropionic acid = des-amino-histidine); the added C-terminal Lys carries the acyl side chain printed in the name; C-terminal amide
B2: [Aib8,Glu22,Arg26,Glu30,Pro37]GLP-1-((7-37)Lys … (peptide)
peptide: H[Aib]EGTFTSDVSSYLEEQAAREFIEWLVKGRPK
modifications: not fully specified (residue 32); printed as [Aib8,Glu22,Arg26,Glu30,Pro37]GLP-1-(7-37)Lys (2-(2-(3-(2-(2-(2-(2-(2-(2-(2-(2-(2-(2-(2-(2-[4-(S)-carboxy-4-(4-(S)-carboxy-4-(4-{4-[16-(Tetrazol-5-yl)hexadecanoylsulfamoyl]butanoylamino}butanoylamino) butyrylamino)butyrylamino]ethoxy)ethoxy)ethoxy)ethoxy)ethoxy)ethoxy)ethoxy)ethoxy)ethoxy)ethoxy)ethoxy)ethoxy) propionylamino)ethoxy)ethoxy) peptide
B3: N-epsilon20-[2-(2-{2-[(S)-4-Carboxy-4-((S)-4-carboxy-4-{12-[4-(16-(1H-tetrazol-5-yl)hexadecanoylsulfamoyl)butyrylamino]dodecanoylamino}butyrylamino)butyrylamino … (peptide)
peptide: HAEGTFTSDVSSYKEEQAAREFIEWLVKGRP
modifications: Aib8; Lys20 N-epsilon carries the acyl side chain printed in the name; C-terminal amide
B4: N-epsilon31{2-[2-(2-{2-[2-((S)-3-carboxy-3-{[1-(19-carboxynonadecanoyl)piperidine-4-carbonyl]amino}propionylamino)ethoxy]ethoxy}acetylamino)ethoxy]ethoxy}acetyl … (peptide)
peptide: H[Aib]EGTFTSDVSSYLEEQAAREFIAKLVKGRG
modifications: not fully specified (residue 25); printed as N-epsilon31{2-[2-(2-{2-[2-((S)-3-carboxy-3-{[1-(19-carboxynonadecanoyl)piperidine-4-carbonyl]amino}propionylamino)ethoxy]ethoxy}acetylamino)ethoxy]ethoxy}acetyl [Aib8, Glu22, Arg26,Lys 31]GLP-1-(7-37)
B5: N-ε^20({2-[2-(2-{2-[2-((R)-3-carboxy-3-{[1-(17-carboxyheptadecanoyl)piperidine-4-carbonyl]amino}propionylamino)ethoxy]ethoxy}acetylamino)ethoxy]ethoxy}acetyl) … (peptide)
peptide: H[Aib]EGTFTSDVSSYK([AEEA-AEEA-d(βAsp)-Inp-C18 diacid])EGQAAREFIEWLT(Bn)KGRG-NH2
modifications: not fully specified; printed as N-ε^20({2-[2-(2-{2-[2-((R)-3-carboxy-3-{[1-(17-carboxyheptadecanoyl)piperidine-4-carbonyl]amino}propionylamino)ethoxy]ethoxy}acetylamino)ethoxy]ethoxy}acetyl) [Aib^8,Lys^20,Arg^28,Glu^30,Thr(O-benzyl)^33,]GLP-1-(7-37)amide
notes: Arg26 used; also called [Aib^8,Lys^20,Arg^26,Glu^30,Thr(O-benzyl)^33,]GLP-1-(7-37)amide derivative
B6: N-epsilon … (peptide)
peptide: HAEGTFTSDVSKYLEEQAAKEFIAWLVQGRG
modifications: not fully specified; Aib8; Lys18 N-epsilon carries the acyl side chain printed in the name
B7: N-epsilon30{2-[2-(2-{2-[2-((S)-3-carboxy-3-{[1-(19-carboxynonadecanoyl)piperidine-4-carbonyl]amino}propionylamino)ethoxy]ethoxy}acetylamino)ethoxy]ethoxy}acetyl … (peptide)
peptide: H[Aib]EGTFTSDVSSYLEEQAAREFIKWLVKGRG
modifications: not fully specified (residue 24); printed as N-epsilon30{2-[2-(2-{2-[2-((S)-3-carboxy-3-{[1-(19-carboxynonadecanoyl)piperidine-4-carbonyl]amino}propionylamino)ethoxy]ethoxy}acetylamino)ethoxy]ethoxy}acetyl [Aib8,Glu22,Arg26,Lys30]GLP-1-(7-37)
B8: N-epsilon26-[2-(2-[2-(2-[2-(2-((R)-3-[trans-4-((9-Carboxynonadecanoylamino]methyl)cyclohexylcarbonylamino]3-carboxypropionylamino)ethoxy)ethoxy]acetylamino)etho … (peptide)
peptide: H[Aib]EGTFTSDVSSYLEEQAAKEFIAWLVQGRG
modifications: not fully specified (residue 20); printed as N-epsilon26-[2-(2-[2-(2-[2-(2-((R)-3-[trans-4-((9-Carboxynonadecanoylamino]methyl)cyclohexylcarbonylamino]3-carboxypropionylamino)ethoxy)ethoxy]acetylamino)ethoxy]ethoxy)acetyl][Aib8, Glu22, Gln34]GLP-1-(7-37)
B9: N-epsilon … (peptide)
peptide: H[Aib]EGTFTSDVSKYLE[Aib]QAAREFIAWLVR[Aib]RG
modifications: not fully specified (residue 12); printed as N-epsilon 18-[2-(2-[2-(2-[2-(2-((R)-3-[trans-4-((9-Carboxynonadecanoylamino]methyl)cyclohexylcarbonylamino]3-carboxypropionylamino)ethoxy)ethoxy]acetylamino)ethoxy]ethoxy)acetyl][Aib8, 22,35, Lys18, Arg26,34]GLP-1-(7-37)
B10: N-epsilon31-(2-{2-[2-(2-{2-[2-((S)-3-Carboxy-3-{[1-(19-carboxy-nonadecanoyl)piperidine-4-carbonyl]amino}propionylamino)ethoxy]ethoxy}acetylamino)ethoxy]ethoxy}a … (peptide)
peptide: H[Aib]EGTFTSDVSSYLEEQAAREFIAKLVRGRG
modifications: not fully specified (residue 25); printed as N-epsilon31-(2-{2-[2-(2-{2-[2-((S)-3-Carboxy-3-{[1-(19-carboxy-nonadecanoyl)piperidine-4-carbonyl]amino}propionylamino)ethoxy]ethoxy}acetylamino)ethoxy]ethoxy}acetyl)[Aib8,Glu22,Arg26,Lys31,Arg34]GLP-1-(7-37)
B11: N-alpha37-[2-(2-{2-[2-(2-{2-[(S)-4-Carboxy-4-({trans-4-[(19-carboxynonadecanoylamino)methyl]cyclohexanecarbonyl}amino)butyrylamino]ethoxy}ethoxy)acetylamino]eth … (peptide)
peptide: HAEGTFTSDVSSYLEEQAAREFIAWLVRGRK
modifications: desaminoHis7; Lys37 is bound to the peptide via its epsilon amino group (epsilon-Lys37); its N-alpha carries the acyl side chain printed in the name
B12: N-epsilon37-[2-(2-{2-[(S)-4-Carboxy-4-((S)-4-carboxy-4-{12-[4-(16-(1H-tetrazol-5-yl)hexadecanoylsulfamoyl)butyrylamino]dodecanoylamino}butyrylamino)butyrylamino … (peptide)
peptide: B11 peptide
modifications: Aib8; Lys37 N-epsilon carries the acyl side chain printed in the name; C-terminal amide
B13: [DesaminoHis7,Glu22,Arg26,Arg34]GLP-1-(7-37)Lys[2-(2-{2-[2-(2-{2-[4-Carboxy-4-({trans-4-[(19-carboxy-nonadecanoylamino)methyl]cyclohexanecarbonyl}amino)butyryla … (peptide)
peptide: [Desaminohistidyl]AEGTFTSDVSSYLEEQAAREFIAWLVRGRGK([AEEA-AEEA-γGlu-Trx-C20 diacid])-NH2
SMILES: CC[C@H](C)[C@H](NC(=O)[C@H](Cc1ccccc1)NC(=O)[C@H](CCC(=O)O)NC(=O)[C@H](CCCNC(=N)N)NC(=O)[C@H](C)NC(=O)[C@H](C)NC(=O)[C@H](CCC(N)=O)NC(=O)[C@H](CCC(=O)O)NC(=O)[C@H](CCC(=O)O)NC(=O)[C@H](CC(C)C)NC(=O)[C@H](Cc1ccc(O)cc1)NC(=O)[C@H](CO)NC(=O)[C@H](CO)NC(=O)[C@@H](NC(=O)[C@H](CC(=O)O)NC(=O)[C@H](CO)NC(=O)[C@@H](NC(=O)[C@H](Cc1ccccc1)NC(=O)[C@@H](NC(=O)CNC(=O)[C@H](CCC(=O)O)NC(=O)[C@H](C)NC(=O)CCc1c[nH]cn1)[C@@H](C)O)[C@@H](C)O)C(C)C)C(=O)N[C@@H](C)C(=O)N[C@@H](Cc1c[nH]c2ccccc12)C(=O)N[C@@H](CC(C)C)C(=O)N[C@H](C(=O)N[C@@H](CCCNC(=N)N)C(=O)NCC(=O)N[C@@H](CCCNC(=N)N)C(=O)NCC(=O)N[C@@H](CCCCNC(=O)COCCOCCNC(=O)COCCOCCNC(=O)CC[C@H](NC(=O)[C@H]1CC[C@H](CNC(=O)CCCCCCCCCCCCCCCCCCC(=O)O)CC1)C(=O)O)C(N)=O)C(C)C

The experiment has as its target T1, human serum albumin (HSA) (human, UniProt P02768 25-609, biotinylated).
T1 construct: also called biotinylated HSA
In words: competition SPA on biotinylated HSA, 125I acylated GLP-1 tracer.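 Further: streptavidin SPA beads carrying biotinylated HSA, competition incubated 20 h at room temperature, plates then read on a TopCount counter.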
Description: Streptavidin-SPA beads (GE Healthcare RPNQ0009) were incubated with biotinylated HSA for 5 hours. The beads were washed with buffer to remove unbound HSA. […] After 20 hours of gentle rocking at room temperature the plates were centrifuged and counted on a TopCounter.
Turning to B1, the EC50 (usually the concentration needed to bring the measured effect to its halfway point) lay in the range of 1 to 100 nM.

HAEGTFTSDVSSYLEEQAAREFIEWLVKGRPK (Aib8; the added C-terminal Lys carries the acyl side chain printed in the name) [[Aib8,Glu22,Arg26,Glu30,Pro37]GLP-1-(7-37)Lys …] gave an EC50 of 150 to 300 nM. Regarding B2, the EC50 was 300 to 800 nM. Consider B3, for which the EC50 lay in the range of 1 to 100 nM. With B4 the figure was 100 to 150 nM; with B5, 300 to 800 nM.

H[Aib]EGT[2Nal]TSDVSSYK([AEEA-AEEA-d(βAsp)-Inp-C18 diacid])EGQAAREFIEWLVKGRG-NH2 came in with a concentration giving a half-maximal response (EC50) of 150 to 300 nM. In turn, B6 displayed an EC50 of 800 to 2000 nM.

Regarding B7, the EC50 lay in the range of 150 to 300 nM. B8 returned an EC50 of 100 to 150 nM.

With B9, the concentration for a half-maximal effect (EC50) was 800 to 2000 nM. With B10, the EC50 was 150 to 300 nM. In turn, H[Aib]EGTFTSDVSSYK([AEEA-AEEA-d(βAsp)-Inp-C18 diacid])EGQAARE[2Nal]IEWLVKGRG-NH2 came in with an EC50 of 800 to 2000 nM. In the case of B11, the EC50 lay within 1 to 100 nM. As for B12, the concentration giving a half-maximal response (EC50) was in the range of 800 to 2000 nM. H[Aib]EGTFTSDVSSYLEEQAAREFIAWLVRGRK([AEEA-AEEA-γGlu-Trx-C20 diacid])-NH2 had an EC50 of 800 to 2000 nM.

On to B13, for which the EC50 lay within 800 to 2000 nM.
